Data published in publication PMC4733404.

Target: BDBV GP[change] (recombinant GP form that lacks the highly glycosylated mucin-like domains) (Bundibugyo virus (BDBV))
Test: negative-stain single-particle electron microscopy

“BDBV GP[change] (recombinant GP form that lacks the highly glycosylated mucin-like domains) (domain or fragment)” showed a stoichiometry N of 3.
